Data taken from paper PMC9133112, “The structural basis of Cdc7-Dbf4 kinase dependent targeting and phosphorylation of the MCM2-7 double hexamer” (Nature Communications, 2022).

How the values were obtained:
Experiment in all cases: cryo-EM structure; MD-(ATPγS): 250 nM DH released from beads by AluI + 750 nM DDK, 10 min 24 °C, buffer C with 3 mM ATPγS; GraFix glycerol gradient with glutaraldehyde; states I-III
Conditions in all cases: both partners purified
Mcm4 = target: T1, Mcm4 (Saccharomyces cerevisiae, UniProt P30665 1-933)
T1 construct: Mcm4, Saccharomyces cerevisiae, full length; Subunit of m2, written alone for the contacts seen in the cryo-EM structures
T1 sequence (looked up): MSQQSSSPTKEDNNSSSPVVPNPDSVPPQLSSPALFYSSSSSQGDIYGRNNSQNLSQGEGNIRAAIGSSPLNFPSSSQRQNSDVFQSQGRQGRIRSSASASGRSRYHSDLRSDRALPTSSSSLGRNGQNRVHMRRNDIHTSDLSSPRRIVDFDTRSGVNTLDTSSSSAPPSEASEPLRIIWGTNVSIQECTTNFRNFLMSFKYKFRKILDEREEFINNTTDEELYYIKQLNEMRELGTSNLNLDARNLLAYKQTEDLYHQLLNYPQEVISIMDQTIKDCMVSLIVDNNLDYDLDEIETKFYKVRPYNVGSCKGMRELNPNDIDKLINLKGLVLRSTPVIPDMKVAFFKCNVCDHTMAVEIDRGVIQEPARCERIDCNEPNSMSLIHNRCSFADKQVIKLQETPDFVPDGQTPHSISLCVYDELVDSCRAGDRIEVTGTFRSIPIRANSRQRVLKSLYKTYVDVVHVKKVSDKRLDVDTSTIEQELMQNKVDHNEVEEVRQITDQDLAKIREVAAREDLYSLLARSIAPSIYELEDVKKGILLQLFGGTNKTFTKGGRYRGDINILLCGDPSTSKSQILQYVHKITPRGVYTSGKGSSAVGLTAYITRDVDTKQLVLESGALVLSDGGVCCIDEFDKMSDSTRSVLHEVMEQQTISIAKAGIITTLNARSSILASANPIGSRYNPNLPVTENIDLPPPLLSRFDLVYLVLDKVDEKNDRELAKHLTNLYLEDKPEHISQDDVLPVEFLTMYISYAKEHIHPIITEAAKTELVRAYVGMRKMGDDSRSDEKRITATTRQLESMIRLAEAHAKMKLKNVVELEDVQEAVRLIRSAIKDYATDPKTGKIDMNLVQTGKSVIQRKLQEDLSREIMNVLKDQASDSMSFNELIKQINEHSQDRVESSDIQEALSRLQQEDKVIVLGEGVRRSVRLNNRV

Mcm3 = target: T2, Mcm3 (Saccharomyces cerevisiae, UniProt P24279 1-971)
T2 construct: Mcm3, Saccharomyces cerevisiae, full length; Subunit of m2, written alone for the contacts seen in the cryo-EM structures
T2 sequence (P24279 whole entry): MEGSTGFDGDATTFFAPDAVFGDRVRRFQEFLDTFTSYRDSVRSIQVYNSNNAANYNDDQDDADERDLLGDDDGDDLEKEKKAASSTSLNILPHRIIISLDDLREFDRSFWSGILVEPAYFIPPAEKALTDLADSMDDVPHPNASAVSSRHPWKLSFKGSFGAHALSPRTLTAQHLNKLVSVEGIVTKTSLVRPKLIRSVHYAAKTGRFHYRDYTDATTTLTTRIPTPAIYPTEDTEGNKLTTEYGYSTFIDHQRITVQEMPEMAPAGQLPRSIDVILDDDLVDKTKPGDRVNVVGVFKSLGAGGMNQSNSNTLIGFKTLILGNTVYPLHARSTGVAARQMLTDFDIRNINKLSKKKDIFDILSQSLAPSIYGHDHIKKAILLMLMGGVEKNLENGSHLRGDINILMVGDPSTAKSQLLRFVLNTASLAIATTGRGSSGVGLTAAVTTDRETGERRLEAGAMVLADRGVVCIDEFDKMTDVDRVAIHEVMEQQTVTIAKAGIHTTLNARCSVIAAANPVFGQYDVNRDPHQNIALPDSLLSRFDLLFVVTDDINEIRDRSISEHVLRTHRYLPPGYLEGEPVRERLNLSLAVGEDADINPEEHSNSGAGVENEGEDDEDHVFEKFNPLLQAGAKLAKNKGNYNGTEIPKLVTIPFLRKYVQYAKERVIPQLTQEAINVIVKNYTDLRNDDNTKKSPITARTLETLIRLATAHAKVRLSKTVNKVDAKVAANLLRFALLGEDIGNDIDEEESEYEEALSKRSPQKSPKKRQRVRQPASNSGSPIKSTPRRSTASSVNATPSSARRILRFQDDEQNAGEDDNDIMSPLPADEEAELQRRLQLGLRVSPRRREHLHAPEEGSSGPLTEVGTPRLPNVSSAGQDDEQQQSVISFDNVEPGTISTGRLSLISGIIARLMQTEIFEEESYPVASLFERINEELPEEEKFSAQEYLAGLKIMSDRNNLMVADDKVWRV

MCM2-7 double hexamer = target: T3, MCM2-7 double hexamer (Saccharomyces cerevisiae, UniProt P29469 1-868; P24279 1-971; P30665 1-933; P29496 1-775; P53091 1-1017; P38132 …)
T3 construct: Mcm2, Saccharomyces cerevisiae, full length; Mcm3, Saccharomyces cerevisiae, full length; Mcm4, Saccharomyces cerevisiae, full length; Mcm5, Saccharomyces cerevisiae, full length; Mcm6, Saccharomyces cerevisiae, full length; Mcm7, Saccharomyces cerevisiae, full length; Two head-to-head MCM2-7 hexamers assembled on origin DNA; becomes (thio-)phosphorylated by DDK on Mcm2, Mcm4, Mcm6 (and Mcm7) …
T3 sequence (P29469 whole entry, chain 1 of 4): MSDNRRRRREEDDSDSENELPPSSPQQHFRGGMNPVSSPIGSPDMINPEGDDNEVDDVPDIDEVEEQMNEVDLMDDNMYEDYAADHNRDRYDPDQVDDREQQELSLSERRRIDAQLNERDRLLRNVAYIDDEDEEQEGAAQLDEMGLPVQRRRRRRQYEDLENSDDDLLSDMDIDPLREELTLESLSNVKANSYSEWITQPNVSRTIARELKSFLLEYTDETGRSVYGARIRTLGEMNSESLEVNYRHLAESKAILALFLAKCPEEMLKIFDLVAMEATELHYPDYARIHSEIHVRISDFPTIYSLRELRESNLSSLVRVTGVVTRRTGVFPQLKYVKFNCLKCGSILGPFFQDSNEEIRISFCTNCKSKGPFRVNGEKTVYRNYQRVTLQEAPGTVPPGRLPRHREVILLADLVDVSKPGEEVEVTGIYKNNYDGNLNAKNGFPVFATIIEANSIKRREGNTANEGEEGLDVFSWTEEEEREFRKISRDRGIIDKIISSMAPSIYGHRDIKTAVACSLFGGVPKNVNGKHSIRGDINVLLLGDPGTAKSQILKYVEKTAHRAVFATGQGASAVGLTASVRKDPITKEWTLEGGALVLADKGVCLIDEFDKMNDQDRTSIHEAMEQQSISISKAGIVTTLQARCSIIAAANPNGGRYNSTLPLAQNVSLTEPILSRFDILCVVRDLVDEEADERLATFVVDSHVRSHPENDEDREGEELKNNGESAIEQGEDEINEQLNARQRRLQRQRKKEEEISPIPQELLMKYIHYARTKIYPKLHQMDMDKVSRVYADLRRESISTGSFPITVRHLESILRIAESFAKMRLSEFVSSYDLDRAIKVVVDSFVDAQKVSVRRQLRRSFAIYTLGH
T3 sequence (P24279 whole entry, chain 2 of 4): as the sequence (P24279 whole entry) above
T3 sequence (P29496 whole entry, chain 4 of 4): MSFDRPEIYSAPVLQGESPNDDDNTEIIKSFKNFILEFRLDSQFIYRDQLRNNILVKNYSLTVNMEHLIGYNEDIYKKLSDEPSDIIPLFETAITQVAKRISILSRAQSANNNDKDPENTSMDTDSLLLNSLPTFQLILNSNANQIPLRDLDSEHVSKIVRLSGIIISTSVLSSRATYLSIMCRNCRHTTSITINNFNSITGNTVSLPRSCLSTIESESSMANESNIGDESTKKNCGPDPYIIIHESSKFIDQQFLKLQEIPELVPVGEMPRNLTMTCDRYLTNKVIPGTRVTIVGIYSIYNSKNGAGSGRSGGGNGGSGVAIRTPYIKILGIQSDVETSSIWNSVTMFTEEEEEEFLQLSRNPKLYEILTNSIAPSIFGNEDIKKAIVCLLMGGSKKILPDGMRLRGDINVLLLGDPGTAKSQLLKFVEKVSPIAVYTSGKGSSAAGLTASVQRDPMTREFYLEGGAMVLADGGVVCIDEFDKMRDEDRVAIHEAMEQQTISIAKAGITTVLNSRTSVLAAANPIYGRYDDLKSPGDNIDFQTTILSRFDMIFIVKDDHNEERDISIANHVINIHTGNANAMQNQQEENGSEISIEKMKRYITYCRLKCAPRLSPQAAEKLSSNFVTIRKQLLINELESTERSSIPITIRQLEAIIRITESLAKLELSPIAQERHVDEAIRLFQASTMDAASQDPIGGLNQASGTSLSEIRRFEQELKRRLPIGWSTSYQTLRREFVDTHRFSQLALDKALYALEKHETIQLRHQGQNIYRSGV
T3 sequence (P53091 whole entry, chain 5 of 4): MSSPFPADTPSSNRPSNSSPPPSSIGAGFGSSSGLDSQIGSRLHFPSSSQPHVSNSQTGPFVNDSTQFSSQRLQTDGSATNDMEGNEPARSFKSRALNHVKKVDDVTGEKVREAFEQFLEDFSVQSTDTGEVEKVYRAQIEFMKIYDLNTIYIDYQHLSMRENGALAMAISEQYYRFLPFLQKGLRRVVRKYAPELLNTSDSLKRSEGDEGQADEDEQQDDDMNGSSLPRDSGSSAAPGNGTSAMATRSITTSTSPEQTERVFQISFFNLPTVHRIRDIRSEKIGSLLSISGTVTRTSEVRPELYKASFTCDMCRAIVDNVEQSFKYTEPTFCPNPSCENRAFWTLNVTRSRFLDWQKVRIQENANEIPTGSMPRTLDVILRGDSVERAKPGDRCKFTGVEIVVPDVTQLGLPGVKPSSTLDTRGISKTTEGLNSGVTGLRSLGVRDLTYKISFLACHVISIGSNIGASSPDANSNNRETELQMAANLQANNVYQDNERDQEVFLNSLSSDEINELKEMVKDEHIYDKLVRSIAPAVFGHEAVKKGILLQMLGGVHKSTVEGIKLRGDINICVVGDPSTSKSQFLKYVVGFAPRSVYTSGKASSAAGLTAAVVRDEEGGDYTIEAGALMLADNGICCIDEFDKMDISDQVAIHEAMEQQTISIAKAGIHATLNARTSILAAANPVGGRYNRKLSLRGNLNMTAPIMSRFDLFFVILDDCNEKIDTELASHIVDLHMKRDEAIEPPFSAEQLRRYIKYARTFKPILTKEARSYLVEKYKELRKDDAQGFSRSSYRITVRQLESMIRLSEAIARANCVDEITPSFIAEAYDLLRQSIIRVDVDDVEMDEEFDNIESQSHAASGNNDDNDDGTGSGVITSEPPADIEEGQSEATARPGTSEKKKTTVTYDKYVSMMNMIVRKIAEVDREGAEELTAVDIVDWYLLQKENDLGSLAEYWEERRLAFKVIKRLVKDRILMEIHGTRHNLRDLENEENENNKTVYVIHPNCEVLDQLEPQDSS

Row | binding result (Mcm4) | binding result (Mcm3) | stoichiometry N (MCM2-7 double hexamer) | Binder
1 | binds | binds | – | Mcm7 (natural protein, Saccharomyces cerevisiae, UniProt P38132 1-845, looked up, Mcm7, Saccharomyces cerevisiae, full length; Subunit of m2, written alone for the contacts seen in the cryo-EM structures) MSAALPSIQLPVDYNNLFNEITDFLVTFKQDTLSSDATRNENEDENLDAENIEQHLLEKGPKYMAMLQKVANRELNSVIIDLDDILQYQNEKFLQGTQADDLVSAIQQNANHFTELFCRAIDNNMPLPTKEIDYKDDVLDVILNQRRLRNERMLSDRTNEIRSENLMDTTMDPPSSMNDALREVVEDETELFPPNLTRRYFLYFKPLSQNCARRYRKKAISSKPLSVRQIKGDFLGQLITVRGIITRVSDVKPAVEVIAYTCDQCGYEVFQEVNSRTFTPLSECTSEECSQNQTKGQLFMSTRASKFSAFQECKIQELSQQVPVGHIPRSLNIHVNGTLVRSLSPGDIVDVTGIFLPAPYTGFKALKAGLLTETYLEAQFVRQHKKKFASFSLTSDVEERVMELITSGDVYNRLAKSIAPEIYGNLDVKKALLLLLVGGVDKRVGDGMKIRGDINVCLMGDPGVAKSQLLKAICKISPRGVYTTGKGSSGVGLTAAVMKDPVTDEMILEGGALVLADNGICCIDEFDKMDESDRTAIHEVMEQQTISISKAGINTTLNARTSILAAANPLYGRYNPRLSPLDNINLPAALLSRFDILFLMLDIPSRDDDEKLAEHVTYVHMHNKQPDLDFTPVEPSKMREYIAYAKTKRPVMSEAVNDYVVQAYIRLRQDSKREMDSKFSFGQATPRTLLGIIRLSQALAKLRLADMVDIDDVEEALRLVRVSKESLYQETNKSKEDESPTTKIFTIIKKMLQETGKNTLSYENIVKTVRLRGFTMLQLSNCIQEYSYLNVWHLINEGNTLKFVDDGTMDTDQEDSLVSTPKLAPQTTASANVSAQDSDIDLQDA
2 | – | – | 2 DDK per MCM2-7 double hexamer | Dbf4-dependent Cdc7 kinase (DDK), wild type (complex, Saccharomyces cerevisiae, Cdc7 serine/threonine kinase, Saccharomyces cerevisiae, full length; Dbf4 (dumbbell former 4), Saccharomyces cerevisiae, full length; An MBP tag was cleaved with PreScission Protease; Treated with lambda phosphatase during purification; autophosphorylates (thio-phosphorylates with ATPγS) in the assays; also called Cdc7-Dbf4; WT DDK; source: budding yeast cells, purified (amylose resin, lambda …)) chain 1: MTSKTKNIDDIPPEIKEEMIQLYHDLPGIENEYKLIDKIGEGTFSSVYKAKDITGKITKKFASHFWNYGSNYVALKKIYVTSSPQRIYNELNLLYIMTGSSRVAPLCDAKRVRDQVIAVLPYYPHEEFRTFYRDLPIKGIKKYIWELLRALKFVHSKGIIHRDIKPTNFLFNLELGRGVLVDFGLAEAQMDYKSMISSQNDYDNYANTNHDGGYSMRNHEQFCPCIMRNQYSPNSHNQTPPMVTIQNGKVVHLNNVNGVDLTKGYPKNETRRIKRANRAGTRGFRAPEVLMKCGAQSTKIDIWSVGVILLSLLGRRFPMFQSLDDADSLLELCTIFGWKELRKCAALHGLGFEASGLIWDKPNGYSNGLKEFVYDLLNKECTIGTFPEYSVAFETFGFLQQELHDRMSIEPQLPDPKTNMDAVDAYELKKYQEEIWSDHYWCFQVLEQCFEMDPQKRSSAEDLLKTPFFNELNENTYLLDGESTDEDDVVSSSEADLLDKDVLLISE chain 2: MVSPTKMIIRSPLKETDTNLKHNNGIAASTTAAGHLNVFSNDNNCNNNNTTESFPKKRSLERLELQQQQHLHEKKRARIERARSIEGAVQVSKGTGLKNVEPRVTPKELLEWQTNWKKIMKRDSRIYFDITDDVEMNTYNKSKMDKRRDLLKRGFLTLGAQITQFFDTTVTIVITRRSVENIYLLKDTDILSRAKKNYMKVWSYEKAARFLKNLDVDLDHLSKTKSASLAAPTLSNLLHNEKLYGPTDRDPRTKRDDIHYFKYPHVYLYDLWQTWAPIITLEWKPQELTNLDELPYPILKIGSFGRCPFIGDRNYDESSYKRVVKRYSRDKANKKYALQLRALFQYHADTLLNTSSVNDQTKNLIFIPHTCNDSTKSFKKWMQEKAKNFEKTELKKTDDSAVQDVRNEHADQTDEKNSILLNETETKEPPLKEEKENKQSIAEESNKYPQRKELAATPKLNHPVLATFARQETEEVPDDLCTLKTKSRQAFEIKASGAHQSNDVATSFGNGLGPTRASVMSKNMKSLSRLMVDRKLGVKQTNGNNKNYTATIATTAETSKENRHRLDFNALKKDEAPSKETGKDSAVHLETNRKPQNFPKVATKSVSADSKVHNDIKITTTESPTASKKSTSTNVTLHFNAQTAQTAQPVKKETVKNSGYCENCRVKYESLEQHIVSEKHLSFAENDLNFEAIDSLIENLRFQI
